These results are taken from patent US20230104769A1 (MABWELL SHANGHAI BIOSCIENCE, published 2023).

The target in one assay is T1, N74A.
T1 construct: also called full-length human PD-1 N74A expressed on HEK293 cells; PD-1-mut N74A; not shown: EGFP of the expression vector, if it is fused to PD-1
The assay can be described thus: flow cytometry on transfected HEK293 cells, antibody 2 µg/ml, goat anti-human IgG(Fc)-Cy5; no negative-control bar is drawn. Here is the method: (§1) The mutants obtained were inserted into an expression vector carrying EGFP to construct five plasmids expressing full-length human PD-1 (WT, N49A, N58A., N116A, N74A). […] 2 days after the transfection, the cells were collected to a 96-well plate, centrifuged at 1500 rpm for 2 minutes, and the supernatants in the wells were discarded. […] The working concentration of the primary antibodies was 2 μg/ml, and cells without primary antibodies added were used as negative controls. The mixtures obtained were centrifuged at 1500 rpm for 2 minutes, and supernatants were discarded. The cells in each well were resuspended by adding 200 μl PBS and the suspensions obtained were then centrifuged at 1500 rpm for 2 minutes, then supernatants were discarded. Later, the obtained cells were incubated with 200 μl goat anti-human IgG(Fc)-Cy5 (Cat: 12136, Lot: 017M4800V, Sigma) diluted with 5% BSA added into each well for 1 h at room temperature, then centrifuged at 1500 rpm for 2 minutes, and supernatants were discarded. The cells were resuspended by adding 200 μl PBS and the suspensions obtained were then centrifuged at 1500 rpm for 2 minutes, then supernatants were discarded. The cells again were resuspended by adding 200 μl PBS thereto and detected by flow cytometry (B49007AD, SNAW31211).
(In flow cytometry, cells or beads pass a laser one at a time.)

The next assay concerns the target T2, N116A.
T2 construct: also called full-length human PD-1 N116A expressed on HEK293 cells; PD-1-mut N116A; not shown: EGFP of the expression vector, if it is fused to PD-1
Described as above. Here is the method:
as §1

Another assay addresses T3, N49A.
T3 construct: also called full-length human PD-1 N49A expressed on HEK293 cells; PD-1-mut N49A; not shown: EGFP of the expression vector, if it is fused to PD-1
The description is as above. Here is the method:
as §1

The target of assay [1] is T4, rat PD-1 (Cat: 80448-R08H, Sino Biological Inc.) (rat, UniProt D3ZIN8 25-169).
T4 construct: Bought recombinant protein; also called recombinant rat PD-1; not shown: The vendor's tag
T4 sequence: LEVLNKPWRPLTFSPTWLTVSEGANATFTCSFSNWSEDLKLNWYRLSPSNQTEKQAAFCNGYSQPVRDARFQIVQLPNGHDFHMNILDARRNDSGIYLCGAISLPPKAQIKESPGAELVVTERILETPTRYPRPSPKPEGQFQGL
The assay can be described thus: ELISA, plate coated with the PD-1 protein at 1 µg/mL, biotinylated h317, HRP-streptavidin. Here is the method: (§2) The plates were washed three times with PBS subsequently, and 5% BSA-PBS was added for blocking for 60 min at 37° C. […] Again, the plates were washed four times with PBST, then HRP-streptavidin (Cat: 019-035-098, Jackson immuno Research) with a dilution of 1:100 was added for a 30 min incubation at 37° C. Once again, the plates were washed four times with PBST, and TMB substrate was added for developing color through incubating for 10 min at 37° C., then the reaction was terminated by adding 2 M HCl. With 630 nm as reference wavelength, the absorbance at a wavelength of 450 nm (A450 nm-630 nm) of each well in the plates was read and recorded.
Background: In an ELISA, binding on a coated surface is turned into a signal by an enzyme label.

The target in assay [2] is T5, mouse PD-1 (Cat: 50124-M08H, Sino Biological Inc.) (mouse, UniProt Q02242 25-167).
T5 construct: Bought recombinant protein; also called recombinant mouse PD-1
T5 sequence (looked up): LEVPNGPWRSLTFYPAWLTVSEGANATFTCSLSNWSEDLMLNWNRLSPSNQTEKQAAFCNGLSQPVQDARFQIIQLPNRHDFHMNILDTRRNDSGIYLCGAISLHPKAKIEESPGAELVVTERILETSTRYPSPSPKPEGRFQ
Described as above. Here is the method: as §2

T1 sequence (chain, as listed by the source N74A N74A limits assumed): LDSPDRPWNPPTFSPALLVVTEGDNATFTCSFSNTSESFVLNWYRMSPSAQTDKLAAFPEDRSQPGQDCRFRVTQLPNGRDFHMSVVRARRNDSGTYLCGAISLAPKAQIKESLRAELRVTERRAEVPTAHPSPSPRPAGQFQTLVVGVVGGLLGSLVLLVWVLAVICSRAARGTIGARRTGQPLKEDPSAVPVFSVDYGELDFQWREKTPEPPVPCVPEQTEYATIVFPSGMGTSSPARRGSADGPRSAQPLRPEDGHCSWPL
T2 sequence (chain, as listed by the source N116A N116A limits assumed): as the sequence (chain, as listed by the source N74A N74A limits assumed) above, with A50N, N92A counted along it
T3 sequence (chain, as listed by the source N49A N49A limits assumed): as the sequence (chain, as listed by the source N74A N74A limits assumed) above, with N25A, A50N counted along it

B1: h317 (humanized anti-human PD-1 antibody) (antibody, V domains shown)
VH: EVQLVESGGGLVKPGGSLRLSCAASGFTFSSYDMSWVRQAPGKGLEWVATISGGGSYTYYPDSVKGRFTISRDNAKNSLYLQMNSLRAEDTAVYYCASPDSSGVAYWGQGTLVTVSS
VL: DIVMTQSPLSLPVTPGEPASITCKASQDVETVVAWYLQKPGQSPRLLIYWASTRHTGVPDRFSGSGSGTDFTLKISRVEAEDVGVYYCQQYSRYPWTFGQGTKL
notes: also called h317-biotin; biotinylated h317
Take B1: the binding result with N74A is listed as “binds”; with N116A, “binds”; in the assay with N49A, “binds”; in assay [1], “no binding (tested: 1 nM (log(nM) 0 on the axis))”; in assay [2], “no binding (tested: 1 nM (log(nM) 0 on the axis))”.
